{"source": "patent EP0651783B1", "about": "“ALKALINE PHOSPHATASE ENZYME HAVING IMPROVED SPECIFIC ACTIVITY FOR USE IN INDICATOR REAGENTS” (ABBOTT LABORATORIES, priority 1992, dated 1994)", "tested_on": "O=[N+]([O-])c1ccc(OP(=O)(O)O)cc1", "test": "Alkaline phosphatase kinetic constants (substrate hydrolysis)", "assay_type": "biochemical, Escherichia coli", "conditions": "other: Table 1; substrate not named, e.g. p-nitrophenyl phosphate", "protocol": "The analyses for specific activity and temperature stability were performed on highly purified protein material. In brief, the purification process involved the release of the periplasmic protein by the formation of spheroplasts, ammonium sulphate precipitation and chromatofocusing chromatography. […] Temperature stability was measured by monitoring the decay of enzyme activity at different temperatures."}
{"substance": "E. coli alkaline phosphatase variant pMA116, Lys^328 > Arg / Val^99 > Ala (Escherichia coli K-12; K350R/V121A)", "values": [{"measurement": "Km", "value": 74, "unit": "µM"}]}
